Tests used:
Test in all cases: SPR
[1] = target: AglyFc-mut-MBP (aglycosylated, N297A; mouse IgG1 hinge-Fc TT-HN mutant linked via Gly-Ser-Gly-Gly to MBP1–9[4Y]) (mouse | not stated)
[2] = target: wild type (WT) mouse hinge-Fc region (mouse IgG1 derived), no MBP epitope attached (mouse)
[3] = target: Fc-WT-MBP (glycosylated; wild type mouse IgG1 hinge-Fc linked via Gly-Ser-Gly-Gly to MBP1–9[4Y]) (mouse | not stated)
[4] = target: AglyFc-WT-MBP (aglycosylated, N297A; mouse IgG1 hinge-Fc linked via Gly-Ser-Gly-Gly to MBP1–9[4Y]) (mouse | not stated)

Recombinant mouse FcRn (from UniProt Q61559 22-365; P01887 21-119) (receptor)
KD of the higher affinity interaction site [1]: 19.8 nM
KD of the higher affinity interaction site [2]: 188 nM
KD of the higher affinity interaction site [3]: 212 nM
KD of the higher affinity interaction site [4]: 170 nM

Reference: PMC2738423
